Experimental data published in US20100166747A1.

How the values were obtained:
[1] = target: hu IGF-1R(ECD)-C3-muIgG1Fc (human; mouse); test: ORIGEN competition on IGF-1R(ECD)-C3-muFc beads; competitor 2 nM Ru-IGF-2
[2] = target: hu IGF-1R(ECD)-C3-muIgG1Fc (human; mouse); test: ORIGEN competition on IGF-1R(ECD)-C3-muFc beads; competitor 1 nM Ru-IGF-1

Substance	Max (%) maximum level of inhibition at 1 µM antibody [1]	Max (%) maximum level of inhibition at 1 µM antibody [2]
murine anti-IGF-1R antibody 1H7 (Santa Cruz Biotechnology)	99%	89%
murine anti-IGF-1R antibody αIR3 (Calbiochem)		91%
